{"source": "paper PMC10510648", "key": {"[1]": {"test_system": "RirA N8D (Rhizobium leguminosarum strain 8401?)", "test": "SPR", "conditions": "SPR: 10 mM Hepes, 150 mM NaCl, 0.05% Tween, pH 7.4, 20 °C, 0-125 nM dimer; EMSA: 10 mM Hepes, 50 mM NaCl, 2.5% sucrose, 2.5 mM MgCl2, 1 mM DTT, pH 7.9, on ice …"}, "[2]": {"test_system": "RirA wild type (Rhizobium leguminosarum strain 8401)", "test": "SPR", "conditions": "SPR: 10 mM Hepes, 150 mM NaCl, 0.05% Tween, pH 7.4, 20 °C, 0-125 nM dimer; EMSA: 10 mM Hepes, 50 mM NaCl, 2.5% sucrose, 2.5 mM MgCl2, 1 mM DTT, pH 7.9, on ice …"}}}
{"substance": "fhuA IRO box 30 bp SPR oligo", "values": [{"measurement": "Kd", "setting": "[1]", "result": 10.3, "unit": "nM"}, {"measurement": "Kd", "setting": "[2]", "result": 12.8, "unit": "nM"}]}
